This data set concerns the target TNF-alpha (UniProt P01375 77-233). The experiment in a line: FRET quenching (QD photoluminescence decreases with TNF-alpha); DSS peptide-conjugated QD/Au molecular beacon, TNF-alpha in PBS; TNF-alpha samples in PBS; other assay conditions (temperature, concentrations) not in the material; beacon washed in 50 mM borate pH 8.3. Conditions: chain copies: 3.

Sequence of TNF-alpha (P01375 77-233): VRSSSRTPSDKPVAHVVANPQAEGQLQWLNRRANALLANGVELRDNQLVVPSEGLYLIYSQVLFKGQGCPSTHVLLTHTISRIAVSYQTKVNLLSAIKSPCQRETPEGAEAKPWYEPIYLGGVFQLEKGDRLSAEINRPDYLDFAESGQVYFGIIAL

With TGGTGGATGGCGCAGTCGGCGACAA (ssDNA, 5' Amino C6; 3' Thiol C6 SS) [TNF-alpha binding DNA aptamer (25 nt) in DSS-molecular beacon], the binding result is “binds”.

These data come from PMC7413375, “A study on the response of FRET based DNA aptasensors in intracellular environment”.
